Assay [1] concerns the target mannose-6-phosphate receptor. The experiment in a line: relative binding to mannose-6-phosphate receptor; method not given.
Assay [2] addresses mannose-6-phosphate receptor. The assay is described as follows: relative binding to mannose-6-phosphate receptor (Fabrazyme = 100); method not given.

Two molecules from patent US20160264953A1 can be followed below.

For the molecule “Fabrazyme® (from UniProt P06280 32-429) (enzyme)”, in assay [1], the Binding to M6Pr (%) came out at 100%.

B1: recombinant human α-galactosidase-A protein provided herein (FZ2G) (enzyme)
chain: LDNGLARTPTMGWLHWERFMCNLDCQEEPDSCISEKLFMEMAELMVSEGWKDAGYEYLCIDDCWMAPQRDSEGRLQADPQRFPHGIRQLANYVHSKGLKLGIYADVGNKTCAGFPGSFGYYDIDAQTFADWGVDLLKFDGCYCDSLENLADGYKHMSLALNRTGRSIVYSCEWPLYMWPFQKPNYTEIRQYCNHWRNFADIDDSWKSIKSILDWTSFNQERIVDVAGPGGWNDPDMLVIGNFGLSWNQQVTQMALWAIMAAPLFMSNDLRHISPQAKALLQDKDVIAINQDPLGKQGYQLRQGDNFEVWERPLSGLAWAVAMINRQEIGGPRSYTIAVASLGKGVACNPACFITQLLPVKRKLGFYEWTSRLRSHINPTGTVLLQLENTMQMSLKDLL
modifications: N-linked oligosaccharides (including mannose-6-phosphate and bis-mannose-6-phosphate oligosaccharides) at Asn108, Asn161 and Asn184
B1 displayed a Binding to M6Pr (%) in assay [2] of 130%.
